The sequences below were run against SHP2-C SH2 (assay: SH2 binding enrichment of the phosphorylated peptide, bacterial display (enrichment ratio); higher = better substrate or ligand; peptides without Tyr show the background).
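For SH2 binding enrichment of the phosphorylated peptide, bacterial display in this document: peptide library displayed on the E. coli surface as eCPX fusions, selected cells deep-sequenced, score is each peptide's frequency after selection divided by its frequency in the input.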
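For phosphorylation enrichment, bacterial display in this document: 11-residue human phosphosite peptides and single-mutation variants displayed on the E. coli surface, counted by deep sequencing, each peptide's frequency after selection divided by its frequency in the unselected input library; frequency after pTyr selection over input frequency; kinase dosed for 20-30% of maximal phosphorylation in three min.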

Row | Sequence | SH2 binding enrichment
1 | ALWYIYSHTRS [ENG_Y614] | 0.711
2 | HGAKVYIDPFT [EPHB4_Y590_T587A] | 0.668
3 | LGGSPYPRVPV [FGFR1_Y701_G703R] | 0.836
4 | LSQQVYRVNLS [FAT4_Y480_F475L] | 0.67
5 | ESPGLYGFLNV [BCR_Y910] | 0.598
6 | FKPGFYNLKEK [LAMA1_Y490_C485Y_YF] | 0.887
7 | WFKKFYDANYD [MAPRE2_Y158] | 0.722
8 | AHAGEYGVEAL [HBA1_Y25_A27V] | 0.79
9 | PFTRNYYVWAV [CYBA_Y87_R90W] | 1.54
10 | GSETPYMDRTP [ESS2_Y335_V336M] | 0.788
11 | HELYVYKSDEN [DOCK3_Y548_C550S] | 0.772
12 | IIEDPYFGNDS [ACP1_Y132_YF] | 0.584
13 | RSHLSYDVTPE [IQGAP3_Y1098_P1097S] | 0.787
14 | SSEFHCVGGFF [CTSC_Y347_Y347C_YF] | 0.64
15 | QEIATYRRLQE [KRT14_Y415_L419Q] | 1.21
16 | AHAGKYGAEAL [HBA1_Y25_E24K] | 0.608

Results, then the sequence that gave them:

Row | SH2 binding enrichment | Sequence
17 | 1.27 | CNTIHYNFMCN [TP53_Y234_T230N_YF]
18 | 0.613 | RSFSPYDFQPC [TNS1_Y796_YF]
19 | 0.636 | NAMRRHIEEFQ [MNS1_Y244_Y244H]
20 | 1.02 | RPFVFYFSFLL [PTEN_Y177_R173P_YF]
21 | 0.633 | IHADICRWFNI [MARS1_Y344_Y344C]
22 | 0.805 | DAICFYRMENA [NPHS2_Y195_YF]
23 | 1.13 | TVMGLYQKSSL [MYH7_Y609_V606M]
24 | 0.776 | REVKAYGAGLL [TH_Y419_G414R]
25 | 2.08 | RLQAAYNLVKR [PFKM_Y103_R100Q]
26 | 1.03 | IVFVICDEVVK [SLC25A1_Y297_Y297C]
27 | 0.592 | PGVDIYISPNM [PADI3_Y51]
28 | 0.729 | MEFAKYGSLRG [RET_Y809_V804M_YF]
29 | 1.15 | VDSNPYSHLMA [UBA5_Y53_R55H]

The sequences below were run against Hck (UniProt P08631) (assay: phosphorylation enrichment, bacterial display (enrichment ratio); higher = better substrate or ligand; peptides without Tyr show the background).
Sequence of Hck (P08631 whole entry, looked up): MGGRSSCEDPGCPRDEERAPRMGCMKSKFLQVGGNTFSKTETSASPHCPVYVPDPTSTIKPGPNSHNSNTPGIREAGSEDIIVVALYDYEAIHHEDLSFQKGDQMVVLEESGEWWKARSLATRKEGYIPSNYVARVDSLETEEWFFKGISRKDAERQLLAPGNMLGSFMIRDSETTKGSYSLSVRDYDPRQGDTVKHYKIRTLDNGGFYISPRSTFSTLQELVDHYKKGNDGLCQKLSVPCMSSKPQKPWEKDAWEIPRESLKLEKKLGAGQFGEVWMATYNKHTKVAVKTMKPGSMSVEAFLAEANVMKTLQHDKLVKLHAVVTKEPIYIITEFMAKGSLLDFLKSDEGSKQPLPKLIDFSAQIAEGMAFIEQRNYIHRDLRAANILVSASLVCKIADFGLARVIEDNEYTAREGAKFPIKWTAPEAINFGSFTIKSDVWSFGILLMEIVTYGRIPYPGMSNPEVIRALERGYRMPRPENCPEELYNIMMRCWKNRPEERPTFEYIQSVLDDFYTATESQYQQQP

Row | Sequence | phosphorylation enrichment
30 | CNTIHYNFMCN [TP53_Y234_T230N_YF] | 0.531
31 | ALWYIYSHTRS [ENG_Y614] | 0.523
32 | RSFSPYDFQPC [TNS1_Y796_YF] | 0.959
33 | NAMRRHIEEFQ [MNS1_Y244_Y244H] | 0.366
34 | HGAKVYIDPFT [EPHB4_Y590_T587A] | 0.792
35 | LGGSPYPRVPV [FGFR1_Y701_G703R] | 0.412
36 | LSQQVYRVNLS [FAT4_Y480_F475L] | 0.521
37 | RPFVFYFSFLL [PTEN_Y177_R173P_YF] | 0.867
38 | IHADICRWFNI [MARS1_Y344_Y344C] | 0.497
39 | ESPGLYGFLNV [BCR_Y910] | 2.24
40 | FKPGFYNLKEK [LAMA1_Y490_C485Y_YF] | 0.489
41 | DAICFYRMENA [NPHS2_Y195_YF] | 0.624
42 | WFKKFYDANYD [MAPRE2_Y158] | 0.423
43 | AHAGEYGVEAL [HBA1_Y25_A27V] | 0.547
44 | TVMGLYQKSSL [MYH7_Y609_V606M] | 0.573
45 | PFTRNYYVWAV [CYBA_Y87_R90W] | 1.03
46 | GSETPYMDRTP [ESS2_Y335_V336M] | 0.365
47 | REVKAYGAGLL [TH_Y419_G414R] | 0.419
48 | HELYVYKSDEN [DOCK3_Y548_C550S] | 0.835
49 | IIEDPYFGNDS [ACP1_Y132_YF] | 0.96
50 | RSHLSYDVTPE [IQGAP3_Y1098_P1097S] | 0.432
51 | RLQAAYNLVKR [PFKM_Y103_R100Q] | 0.633
52 | IVFVICDEVVK [SLC25A1_Y297_Y297C] | 0.501
53 | SSEFHCVGGFF [CTSC_Y347_Y347C_YF] | 0.499
54 | QEIATYRRLQE [KRT14_Y415_L419Q] | 0.482
55 | AHAGKYGAEAL [HBA1_Y25_E24K] | 0.368
56 | PGVDIYISPNM [PADI3_Y51] | 1.38
57 | MEFAKYGSLRG [RET_Y809_V804M_YF] | 0.49
58 | VDSNPYSHLMA [UBA5_Y53_R55H] | 0.891

— the supplement of paper PMC10065799, “High-throughput profiling of sequence recognition by tyrosine kinases and SH2 domains using bacterial peptide display” (eLife, 2023)
